Reference: PMC6713349, “Structural analysis of the recognition of the -35 promoter element by SigW from Bacillus subtilis”

Target: T1, SigW sigma4 domain (σW4) (Bacillus subtilis 168, UniProt Q45585 126-187)
T1 sequence: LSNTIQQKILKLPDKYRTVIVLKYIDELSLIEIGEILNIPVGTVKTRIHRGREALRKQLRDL
Experiment: X-ray crystallography (3.1 Å); 1:1 complex, DNA mixed at 1.1:1; printed Kd 1.47e-8 M is computed from PISA ΔG, not measured, so not taken; Complex dialysed in 20 mM HEPES pH 7.5, 0.2 M NaCl, 5% glycerol; crystals from PEG1500 and isopropanol; temperature not stated
Settings: protein: recombinant; tags: N-terminal 6xHis, removed with TEV protease; 5' overhang 1 nt at each end, 11 bp

B1: -35W (SigW -35 promoter element) (dsDNA)
DNA 1: ATTGAAACCTTT
DNA 2: AAAAGGTTTCAA
  binding result: binds
